B1: MYBL2 (parent)
chain: FPNRTDQQCQYRWLRVLNPDLVKG

Variants of: B1
Test: protein stability index of a GFP-peptide fusion (GPS, HEK-293T) (PSI 1-6); higher = more stable
Conditions: c terminus: a fixed tail appended
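Note: lentivirally expressed fusions sorted by FACS into six bins by GFP to DsRed ratio, PSI derived from sequencing read proportions per bin multiplied by bin number.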

Variant	protein stability index
FPNRTDQHCQYRWLRVLNPDLVKG [Q8H]	2.37
FPNRTDQVCQYRWLRVLNPDLVKG [Q8V]	2.05
FPNRTDQECQYRWLRVLNPDLVKG [Q8E]	2.01
FPNRTDQCCQYRWLRVLNPDLVKG [Q8C]	1.42
FPNRTDQSCQYRWLRVLNPDLVKG [Q8S]	1.83
FPNRTDQKCQYRWLRVLNPDLVKG [Q8K]	1.97
FPNRTDQWCQYRWLRVLNPDLVKG [Q8W]	1.97
FPNRTDQGCQYRWLRVLNPDLVKG [Q8G]	1.34
FPNRTDQNCQYRWLRVLNPDLVKG [Q8N]	2
FPNRTDQPCQYRWLRVLNPDLVKG [Q8P]	2.09
FPNRTDQFCQYRWLRVLNPDLVKG [Q8F]	1.71
FPNRTDQLCQYRWLRVLNPDLVKG [Q8L]	1.68
FPNRTDQACQYRWLRVLNPDLVKG [Q8A]	1.38
FPNRTDQICQYRWLRVLNPDLVKG [Q8I]	2.01
FPNRTDQMCQYRWLRVLNPDLVKG [Q8M]	1.83
FPNRTDQTCQYRWLRVLNPDLVKG [Q8T]	1.82
FPNRTDQRCQYRWLRVLNPDLVKG [Q8R]	1.96
FPNRTDQYCQYRWLRVLNPDLVKG [Q8Y]	1.88
FPNRTDVQCQYRWLRVLNPDLVKG [Q7V]	1.85
FPNRTDPQCQYRWLRVLNPDLVKG [Q7P]	2.17
FPNRTDDQCQYRWLRVLNPDLVKG [Q7D]	2.3
FPNRTDSQCQYRWLRVLNPDLVKG [Q7S]	1.82
FPNRTDLQCQYRWLRVLNPDLVKG [Q7L]	1.69
FPNRTDTQCQYRWLRVLNPDLVKG [Q7T]	1.72

Variant	protein stability index
FPNRTDKQCQYRWLRVLNPDLVKG [Q7K]	1.8
FPNRTDNQCQYRWLRVLNPDLVKG [Q7N]	2.38
FPNRTDFQCQYRWLRVLNPDLVKG [Q7F]	1.67
FPNRTDWQCQYRWLRVLNPDLVKG [Q7W]	2.29
FPNRTDIQCQYRWLRVLNPDLVKG [Q7I]	2.07
FPNRTDHQCQYRWLRVLNPDLVKG [Q7H]	2.05
FPNRTDMQCQYRWLRVLNPDLVKG [Q7M]	1.96
FPNRTDCQCQYRWLRVLNPDLVKG [Q7C]	1.94
FPNRTDRQCQYRWLRVLNPDLVKG [Q7R]	2.63
FPNRTDYQCQYRWLRVLNPDLVKG [Q7Y]	1.61
FPNRTDGQCQYRWLRVLNPDLVKG [Q7G]	2.96
FPNRTDAQCQYRWLRVLNPDLVKG [Q7A]	2.53
FPNRTDEQCQYRWLRVLNPDLVKG [Q7E]	2.15
FPNMTDQQCQYRWLRVLNPDLVKG [R4M]	2.2
FPNCTDQQCQYRWLRVLNPDLVKG [R4C]	1.51
FPNSTDQQCQYRWLRVLNPDLVKG [R4S]	1.95
FPNWTDQQCQYRWLRVLNPDLVKG [R4W]	2.23
FPNKTDQQCQYRWLRVLNPDLVKG [R4K]	2.11
FPNYTDQQCQYRWLRVLNPDLVKG [R4Y]	1.98
FPNTTDQQCQYRWLRVLNPDLVKG [R4T]	2.02
FPNGTDQQCQYRWLRVLNPDLVKG [R4G]	1.74
FPNNTDQQCQYRWLRVLNPDLVKG [R4N]	1.94
FPNATDQQCQYRWLRVLNPDLVKG [R4A]	1.99
FPNLTDQQCQYRWLRVLNPDLVKG [R4L]	2.65

Variant	protein stability index
FPNDTDQQCQYRWLRVLNPDLVKG [R4D]	2.27
FPNFTDQQCQYRWLRVLNPDLVKG [R4F]	2.22
FPNQTDQQCQYRWLRVLNPDLVKG [R4Q]	2.19
FPNPTDQQCQYRWLRVLNPDLVKG [R4P]	2.64
FPNHTDQQCQYRWLRVLNPDLVKG [R4H]	2.47
FPNVTDQQCQYRWLRVLNPDLVKG [R4V]	1.96
FPNITDQQCQYRWLRVLNPDLVKG [R4I]	1.56
FPNETDQQCQYRWLRVLNPDLVKG [R4E]	2.51
FDNRTDQQCQYRWLRVLNPDLVKG [P2D]	2.06
FKNRTDQQCQYRWLRVLNPDLVKG [P2K]	2.3
FMNRTDQQCQYRWLRVLNPDLVKG [P2M]	1.63
FLNRTDQQCQYRWLRVLNPDLVKG [P2L]	2.62
FYNRTDQQCQYRWLRVLNPDLVKG [P2Y]	2.2
FGNRTDQQCQYRWLRVLNPDLVKG [P2G]	1.88
FINRTDQQCQYRWLRVLNPDLVKG [P2I]	1.13
FCNRTDQQCQYRWLRVLNPDLVKG [P2C]	1.84
FTNRTDQQCQYRWLRVLNPDLVKG [P2T]	1.81
FQNRTDQQCQYRWLRVLNPDLVKG [P2Q]	1.93
FSNRTDQQCQYRWLRVLNPDLVKG [P2S]	2.3
FRNRTDQQCQYRWLRVLNPDLVKG [P2R]	2.49
FVNRTDQQCQYRWLRVLNPDLVKG [P2V]	3.52
FFNRTDQQCQYRWLRVLNPDLVKG [P2F]	1.69
FNNRTDQQCQYRWLRVLNPDLVKG [P2N]	2.06
FWNRTDQQCQYRWLRVLNPDLVKG [P2W]	1.61

Variant	protein stability index
FHNRTDQQCQYRWLRVLNPDLVKG [P2H]	1.86
FENRTDQQCQYRWLRVLNPDLVKG [P2E]	2.67
FANRTDQQCQYRWLRVLNPDLVKG [P2A]	2.17
FPQRTDQQCQYRWLRVLNPDLVKG [N3Q]	2.04
FPRRTDQQCQYRWLRVLNPDLVKG [N3R]	2.1
FPHRTDQQCQYRWLRVLNPDLVKG [N3H]	1.98
FPLRTDQQCQYRWLRVLNPDLVKG [N3L]	1.94
FPVRTDQQCQYRWLRVLNPDLVKG [N3V]	1.91
FPTRTDQQCQYRWLRVLNPDLVKG [N3T]	1.91
FPWRTDQQCQYRWLRVLNPDLVKG [N3W]	1.31
FPFRTDQQCQYRWLRVLNPDLVKG [N3F]	1.63
FPMRTDQQCQYRWLRVLNPDLVKG [N3M]	1.72
FPSRTDQQCQYRWLRVLNPDLVKG [N3S]	1.78
FPARTDQQCQYRWLRVLNPDLVKG [N3A]	2.27
FPKRTDQQCQYRWLRVLNPDLVKG [N3K]	1.77
FPPRTDQQCQYRWLRVLNPDLVKG [N3P]	1.93
FPDRTDQQCQYRWLRVLNPDLVKG [N3D]	1.83
FPCRTDQQCQYRWLRVLNPDLVKG [N3C]	1.56
FPYRTDQQCQYRWLRVLNPDLVKG [N3Y]	1.87
FPIRTDQQCQYRWLRVLNPDLVKG [N3I]	1.82
FPERTDQQCQYRWLRVLNPDLVKG [N3E]	1.96
FPGRTDQQCQYRWLRVLNPDLVKG [N3G]	1.77
